From publication PMC3414502, “γ-Synuclein Interacts with Phospholipase Cβ2 to Modulate G Protein Activation” (PLoS ONE, 2012)

Target: T1, His6-PLCβ2 (phospholipase Cβ2) (UniProt Q00722 1-1185, CPM (thiol-reactive coumarin) on Cys side chains where printed as CPM-PLCβ2; Dabcyl where printed as PLCβ2 with DAB acceptor; unlabelled elsewhere)
T1 construct: phospholipase C β2; called the full length / whole enzyme; printed mass 133.7 kDa; One construct used CPM-labelled, Dabcyl-labelled or unlabelled; also called PLCß2; CPM-PLCβ2; source: Sf9 cells, baculovirus system, purified
T1 sequence (Q00722 whole entry): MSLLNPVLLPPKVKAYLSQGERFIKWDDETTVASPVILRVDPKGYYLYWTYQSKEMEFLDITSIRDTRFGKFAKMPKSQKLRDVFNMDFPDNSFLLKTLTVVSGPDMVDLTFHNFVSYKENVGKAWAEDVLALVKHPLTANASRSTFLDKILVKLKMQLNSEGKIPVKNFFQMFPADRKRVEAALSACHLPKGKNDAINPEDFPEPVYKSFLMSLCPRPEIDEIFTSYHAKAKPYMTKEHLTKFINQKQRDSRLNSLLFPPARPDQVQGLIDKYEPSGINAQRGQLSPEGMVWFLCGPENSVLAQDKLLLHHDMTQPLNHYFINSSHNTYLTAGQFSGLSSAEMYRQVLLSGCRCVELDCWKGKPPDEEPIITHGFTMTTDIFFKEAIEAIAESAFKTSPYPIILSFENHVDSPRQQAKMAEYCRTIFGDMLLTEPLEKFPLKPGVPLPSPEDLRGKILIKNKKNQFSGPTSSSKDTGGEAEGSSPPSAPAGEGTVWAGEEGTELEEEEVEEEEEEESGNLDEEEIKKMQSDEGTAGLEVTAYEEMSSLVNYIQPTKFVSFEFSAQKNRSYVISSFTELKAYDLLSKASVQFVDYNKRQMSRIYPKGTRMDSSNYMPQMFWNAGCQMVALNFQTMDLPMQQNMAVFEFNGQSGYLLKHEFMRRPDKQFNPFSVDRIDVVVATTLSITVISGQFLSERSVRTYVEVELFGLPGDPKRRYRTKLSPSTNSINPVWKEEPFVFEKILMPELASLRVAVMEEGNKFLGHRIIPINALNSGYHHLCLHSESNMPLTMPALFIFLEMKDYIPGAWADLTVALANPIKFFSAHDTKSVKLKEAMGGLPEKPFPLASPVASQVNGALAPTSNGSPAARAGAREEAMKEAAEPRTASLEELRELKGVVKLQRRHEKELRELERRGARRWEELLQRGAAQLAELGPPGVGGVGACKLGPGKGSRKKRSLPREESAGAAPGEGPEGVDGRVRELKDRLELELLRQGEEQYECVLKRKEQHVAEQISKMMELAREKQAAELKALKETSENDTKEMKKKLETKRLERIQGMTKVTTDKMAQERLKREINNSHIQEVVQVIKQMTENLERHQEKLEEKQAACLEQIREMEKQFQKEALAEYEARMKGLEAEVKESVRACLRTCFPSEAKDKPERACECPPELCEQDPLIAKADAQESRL
Assay: other fluorescence titration; activated Gαq and PLCß2, without γ-synuclein; which partner was labelled is not stated
Conditions: both partners purified

Kd: 0.3 ± 0.2 nM
B1: Gαq(GTPγS) (natural protein, UniProt P50148 1-359, looked up)
chain: MTLESIMACCLSEEAKEARRINDEIERQLRRDKRDARRELKLLLLGTGESGKSTFIKQMRIIHGSGYSDEDKRGFTKLVYQNIFTAMQAMIRAMDTLKIPYKYEHNKAHAQLVREVDVEKVSAFENPYVDAIKSLWNDPGIQECYDRRREYQLSDSTKYYLNDLDRVADPAYLPTQQDVLRVRVPTTGIIEYPFDLQSVIFRMVDVGGQRSERRKWIHCFENVTSIMFLVALSEYDQVLVESDNENRMEESKALFRTIITYPWFQNSSVILFLNKKDLLEEKIMYSHLVDYFPEYDGPQRDAQAAREFILKMFVDLNPDSDKIIYSHFTCATDTENIRFVFAAVKDTILQLNLKEYNLV
notes: source: Sf9 cells, co-expressed with Gβ1 and His6-Gγ2
